Measured values taken from US20220403048A1 (CANCER RESEARCH TECHNOLOGY, published 2022).

Assays:
[1] = molecular target: T1, biotinylated recombinant human trimeric ARG2 enzyme (Avi-huARG2-His10) (human, UniProt P78540 23-354, biotinylated); assay: HTRF epitope competition, scFv titrated, competitor C0020187 IgG, on biotinylated human trimeric ARG2
T1 construct: also called avi-Arg2-His10; bio-ARG2
T1 chain: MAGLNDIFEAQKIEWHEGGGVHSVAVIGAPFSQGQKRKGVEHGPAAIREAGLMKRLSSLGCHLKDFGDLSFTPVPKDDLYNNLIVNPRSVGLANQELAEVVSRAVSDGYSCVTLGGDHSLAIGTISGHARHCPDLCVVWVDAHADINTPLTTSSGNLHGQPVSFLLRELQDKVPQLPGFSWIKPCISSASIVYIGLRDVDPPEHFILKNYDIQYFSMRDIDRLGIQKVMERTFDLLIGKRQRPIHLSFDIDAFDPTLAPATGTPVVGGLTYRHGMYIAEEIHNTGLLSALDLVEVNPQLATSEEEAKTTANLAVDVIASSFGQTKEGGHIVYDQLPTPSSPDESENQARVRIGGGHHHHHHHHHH

[2] = molecular target: T2, recombinant human trimeric ARG2 enzyme (construct not given) (human, UniProt P78540 23-354); assay: cell-based or functional assay
T2 sequence (looked up): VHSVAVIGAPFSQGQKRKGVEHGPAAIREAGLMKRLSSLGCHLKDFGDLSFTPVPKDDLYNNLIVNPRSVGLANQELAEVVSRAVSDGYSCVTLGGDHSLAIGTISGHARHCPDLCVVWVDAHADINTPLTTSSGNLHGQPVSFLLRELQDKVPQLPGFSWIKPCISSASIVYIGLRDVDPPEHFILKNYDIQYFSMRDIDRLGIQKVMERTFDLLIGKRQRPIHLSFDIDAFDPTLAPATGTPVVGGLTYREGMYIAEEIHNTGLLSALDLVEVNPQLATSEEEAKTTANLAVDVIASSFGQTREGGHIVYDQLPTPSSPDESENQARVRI

[3] = molecular target: T1, biotinylated recombinant human trimeric …; assay: BLI (OctetRED), biotinylated ARG2 on streptavidin, Fab as analyte
Experimental: An Octet Kinetics Buffer (PBS containing 0.01% BSA and 0.002% Tween20) is typically used as the diluent buffer for the analyte samples and as the flow buffer during the dissociation phase. The experimental data is recorded over time as shift in interference pattern (nm) over time, which is directly proportional to the optical thickness at the biosensor tip, which in turn is an approximate measure of the mass of analyte bound. The proprietary Octet Data Analysis software package can then be used to process data and fit binding models to the data sets. Returned association (kₐ, M⁻¹ s⁻¹) and dissociation (kd, s⁻¹) rate constants allow calculation of dissociation (KD, M) affinity constants.
Typically, an analyte titration range of 1.8 to 120 nM was used.

B1: C0021017 scFv (scFv, V domains shown)
VH: EVQLLESGGGLVQPGGSLRLSCAASGFTFYPEYELWVRQAPGKGLEWVSAISGSGGSTYYADSVKGRFTISRDNSKNTLYLQMNSLRAEDTAVYYCARLRADLGLYMDLWGRGTLVTVSS
VL: QSVLTQPPSVSAAPGQKVTISCSGSSSNIGNHYVSWYQQLPGTAPKLLIYDNSERPSGIPDRFSGSKSGTSATLGITGLQTGDEADYYCGTWDSSLSALVFGGGTKLTVL
notes: scFv
IC50 [1]: 122 nM | Trimeric human ARG2 EIA IC50 [2]: 226 nM

B2: C0021141 Fab (Fab, V domains shown)
VH: EVQLLESGGGLVQPGGSLRLSCAASGFTFYPDPQGWVRQAPGKGLEWVSAYGYGIGSTYYADSVKGRFTISRDNSKNTLYLQMNSLRAEDTAVYYCARLRADLGLYMDLWGRGTLVTVSS
VL: QSVLTQPPSVSAAPGQEVTISCSGSSSNIDNHYVSWYQQLPGTAPKLLIYDNSERPSGIPDRFSGSKSGTSATLGITGLQTGDEADYYCGTWDSSLSALVFGGGTKLTVL
notes: Human Fab
Kd [3]: 3.33 nM | koff [3]: 0.00108 s⁻¹ | kon [3]: 326000 M⁻¹ s⁻¹

B3: C0021021 Fab (Fab, V domains shown)
VH: EVQLLESGGGLVQPGGSLRLSCAASGFTFSSYAMSWVRQAPGKGLEWVSSILFSPGSTYYADSVKGRFTISRDNSKNTLYLQMNSLRAEDTAVYYCARLRADLGLYMDLWGRGTLVTVSS
VL: QSVLTQPPSVSAAPGQKVTISCSGSSSNIGNHYVSWYQQLPGTAPKLLIYDNSERPSGIPDRFSGSKSGTSATLGITGLQTGDEADYYCGTWDSSLSALVFGGGTKLTVL
notes: Human Fab
Kd [3]: 4.24 nM | koff [3]: 0.002 s⁻¹ | kon [3]: 473000 M⁻¹ s⁻¹

B4: C0021092 scFv (scFv, V domains shown)
VH: EVQLLESGGGLVQPGGSLRLSCAASGFTFSRYAMSWVRQAPGKGLEWVSAHTHSPGSTYYADSVKGRFTISRDNSKNTLYLQMNSLRAEDTAVYYCARLRADLGLYMDLWGRGTLVTVSS
VL: QSVLTQPPSVSAAPGQKVTISCSGSSSNIGNHYVSWYQQLPGTAPKLLIYNSVARPSGIPDRFSGSKSGTSATLGITGLQTGDEADYYCGTWDSSLSALVFGGGTKLTVL
notes: scFv
IC50 [1]: 130 nM | Trimeric human ARG2 EIA IC50 [2]: 159 nM

B5: C0021021 scFv (scFv, V domains shown)
VH: EVQLLESGGGLVQPGGSLRLSCAASGFTFSSYAMSWVRQAPGKGLEWVSSILFSPGSTYYADSVKGRFTISRDNSKNTLYLQMNSLRAEDTAVYYCARLRADLGLYMDLWGRGTLVTVSS
VL: QSVLTQPPSVSAAPGQKVTISCSGSSSNIGNHYVSWYQQLPGTAPKLLIYDNSERPSGIPDRFSGSKSGTSATLGITGLQTGDEADYYCGTWDSSLSALVFGGGTKLTVL
notes: scFv
IC50 [1]: 58.7 nM | Trimeric human ARG2 EIA IC50 [2]: 151 nM

B6: C0021032 Fab (Fab, V domains shown)
VH: EVQLLESGGGLVQPGGSLRLSCAASGFTFSSYAMSWVRQAPGKGLEWVSAYGYGIGSTYYADSVKGRFTISRDNSKNTLYLQMNSLRAEDTAVYYCARLRADLGLYMDLWGRGTLVTVSS
VL: QSVLTQPPSVSAAPGQKVTISCSGSSSNIGNHYVSWYQQLPGTAPKLLIYDNSERPSGIPDRFSGSKSGTSATLGITGLQTGDEADYYCGTWDSSLSALVFGGGTKLTVL
notes: Human Fab
Kd [3]: 5.33 nM | koff [3]: 0.00228 s⁻¹ | kon [3]: 427000 M⁻¹ s⁻¹

B7: C0021096 Fab (Fab, V domains shown)
VH: EVQLLESGGGLVQPGGSLRLSCAASGFTFSSYAMSWVRQAPGKGLEWVSAISGYSGYYADSVKGRFTISRDNSKNTLYLQMNSLRAEDTAVYYCARLRADLGLYMDLWGRGTLVTVSS
VL: QSVLTQPPSVSAAPGQKVTISCSGSSSNIGNHYVSWYQQLPGTAPKLLIYNTERRMSGIPDRFSGSKSGTSATLGITGLQTGDEADYYCGTWDSSLSALVFGGGTKLTVL
notes: Human Fab
Kd [3]: 3.48 nM | koff [3]: 0.00154 s⁻¹ | kon [3]: 441000 M⁻¹ s⁻¹

B8: C0021061 scFv (scFv, V domains shown)
VH: EVQLLESGGGLVQPGGSLRLSCAASGFTFSSYAMSWVRQAPGKGLEWVSAKPTDAGSTYYADSVKGRFTISRDNSKNTLYLQMNSLRAEDTAVYYCARLRADLGLYMDLWGRGTLVTVSS
VL: QSVLTQPPSVSAAPGQKVTISCSGSSSNIGNHYVSWYQQLPGTAPKLLIYNTVYPKSGIPDRFSGSKSGTSATLGITGLQTGDEADYYCGTWDSSLSALVFGGGTKLTVL
notes: scFv
IC50 [1]: 101 nM | Trimeric human ARG2 EIA IC50 [2]: 110 nM

B9: C0021097 scFv (scFv, V domains shown)
VH: EVQLLESGGGLVQPGGSLRLSCAASGFTFSSYAMSWVRQAPGKGLEWVSAISYHPGSTYYADSVKGRFTISRDNSKNTLYLQMNSLRAEDTAVYYCARLRADLGLYMDLWGRGTLVTVSS
VL: QSVLTQPPSVSAAPGQKVTISCSGSSSNIGNHYVSWYQQLPGTAPKLLIYNTFARPSGIPDRFSGSKSGTSATLGITGLQTGDEADYYCGTWDSSLSALVFGGGTKLTVL
notes: scFv
IC50 [1]: 27.5 nM | Trimeric human ARG2 EIA IC50 [2]: 99.1 nM

B10: C0021097 Fab (Fab, V domains shown)
VH: EVQLLESGGGLVQPGGSLRLSCAASGFTFSSYAMSWVRQAPGKGLEWVSAISYHPGSTYYADSVKGRFTISRDNSKNTLYLQMNSLRAEDTAVYYCARLRADLGLYMDLWGRGTLVTVSS
VL: QSVLTQPPSVSAAPGQKVTISCSGSSSNIGNHYVSWYQQLPGTAPKLLIYNTFARPSGIPDRFSGSKSGTSATLGITGLQTGDEADYYCGTWDSSLSALVFGGGTKLTVL
notes: Human Fab
Kd [3]: 4.95 nM | koff [3]: 0.00146 s⁻¹ | kon [3]: 295000 M⁻¹ s⁻¹

B11: C0021118 Fab (Fab, V domains shown)
VH: EVQLLESGGGLVQPGGSLRLSCAASGFTFSSYAMSWVRQAPGKGLEWVSASLTNPGSTYYADSVKGRFTISRDNSKNTLYLQMNSLRAEDTAVYYCARLRADLGLYMDLWGRGTLVTVSS
VL: QSVLTQPPSVSAAPGQKVTISCSGSSSNIGNHYVSWYQQLPGTAPKLLIYDNSERPSGIPDRFSGSKSGTSATLGITGLQTGDEADYYCATYDTNLSALVFGGGTKLTVL
notes: Human Fab
Kd [3]: 8.23 nM | koff [3]: 0.00114 s⁻¹ | kon [3]: 139000 M⁻¹ s⁻¹

B12: C0021098 scFv (scFv, V domains shown)
VH: EVQLLESGGGLVQPGGSLRLSCAASGFTFSSYAMSWVRQAPGKGLEWVSSSTYGAGSTYYADSVKGRFTISRDNSKNTLYLQMNSLRAEDTAVYYCARLRADLGLYMDLWGRGTLVTVSS
VL: QSVLTQPPSVSAAPGQKVTISCSGSSSNIGNHYVSWYQQLPGTAPKLLIYNSDAPMSGIPDRFSGSKSGTSATLGITGLQTGDEADYYCGTWDSSLSALVFGGGTKLTVL
notes: scFv
IC50 [1]: 48.3 nM | Trimeric human ARG2 EIA IC50 [2]: 134 nM

B13: C0021089 scFv (scFv, V domains shown)
VH: EVQLLESGGGLVQPGGSLRLSCAASGFTFPYEYWSWVRQAPGKGLEWVSAISGSGGSTYYADSVKGRFTISRDNSKNTLYLQMNSLRAQDTAVYYCARLRADLGLYMDLWGRGTLVTVSS
VL: QSVLTQPPSVSAAPGQKVTISCSGSSSNIGNHYVSWYQQLPGTAPKLLIYDNSERPSGIPDRFSGSKSGTSATLGITGLQTGDEADYYCGTWDPTVSRLVFGGGTKLTVL
notes: scFv
IC50 [1]: 133 nM | Trimeric human ARG2 EIA IC50 [2]: 71.5 nM

B14: C0021032 scFv (scFv, V domains shown)
VH: EVQLLESGGGLVQPGGSLRLSCAASGFTFSSYAMSWVRQAPGKGLEWVSAYGYGIGSTYYADSVKGRFTISRDNSKNTLYLQMNSLRAEDTAVYYCARLRADLGLYMDLWGRGTLVTVSS
VL: QSVLTQPPSVSAAPGQKVTISCSGSSSNIGNHYVSWYQQLPGTAPKLLIYDNSERPSGIPDRFSGSKSGTSATLGITGLQTGDEADYYCGTWDSSLSALVFGGGTKLTVL
notes: scFv
IC50 [1]: 67 nM | Trimeric human ARG2 EIA IC50 [2]: 211 nM

B15: C0021142 Fab (Fab, V domains shown)
VH: EVQLLESGGGLVQPGGSLRLSCAASGFTFSSYAMSWVRQAPGKGLEWVSAHTHSPGSTYYADSVKGRFTISRDNSKNTLYLQMNSLRAEDTAVYYCARLRADLGLYMDLWGRGTLVTVSS
VL: QSVLTQPPSVSAAPGQKVTISCSGSSSNIGNHYVSWYQQLPGTAPKLLIYDNSERPSGIPDRFSGSKSGTSATLGITGLQTGDEADYYCGTWDSSLSALVFGGGTKLTVL
notes: Human Fab
Kd [3]: 2.77 nM | koff [3]: 0.0011 s⁻¹ | kon [3]: 399000 M⁻¹ s⁻¹

B16: C0021101 Fab (Fab, V domains shown)
VH: EVQLLESGGGLVQPGGSLRLSCAASGFTFSSYAMSWVRQAPGKGPEWVSAISGFSPYYADSVKGRFTISRDNSKNTLYLQMNSLRAEDTAVYYCARLRADLGLYMDLWGRGTLVTVSS
VL: QSVLTQPPSVSAAPGQKVTISCSGSSSNIGNHYVSWYQQLPGTAPKLLIYNNRSPTSGIPDRFSGSKSGTSATLGITGLQTGDEADYYCGTWDSSLSALVFGGGTKLTVL
notes: Human Fab
Kd [3]: 3.41 nM | koff [3]: 0.00107 s⁻¹ | kon [3]: 314000 M⁻¹ s⁻¹
